# Values of other authors as cited in paper PMC8100127.
# Legend:
# CA 15-3 (MUC1) = CA 15-3 (MUC1) (UniProt P15941); conditions: No purified-protein binding assay in this paper (Kd values cited). TAS on plasma EVs: 0.1 uM Cy5-aptamer, 1x PBS, 2 mM MgCl2, 25 C, 2 h
# [1] = molecular target: T1, VEGF K321N;internal_change (UniProt P15692); conditions: No purified-protein binding assay in this paper (Kd values cited). TAS on plasma EVs: 0.1 uM Cy5-aptamer, 1x PBS, 2 mM MgCl2, 25 C, 2 h
# T1 sequence: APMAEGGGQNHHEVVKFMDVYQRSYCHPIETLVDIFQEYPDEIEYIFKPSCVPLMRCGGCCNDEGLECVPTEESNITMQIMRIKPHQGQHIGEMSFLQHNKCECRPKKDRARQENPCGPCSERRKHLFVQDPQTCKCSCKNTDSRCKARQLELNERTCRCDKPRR
# Chain of CA 15-3 (MUC1) (P15941 24-1097): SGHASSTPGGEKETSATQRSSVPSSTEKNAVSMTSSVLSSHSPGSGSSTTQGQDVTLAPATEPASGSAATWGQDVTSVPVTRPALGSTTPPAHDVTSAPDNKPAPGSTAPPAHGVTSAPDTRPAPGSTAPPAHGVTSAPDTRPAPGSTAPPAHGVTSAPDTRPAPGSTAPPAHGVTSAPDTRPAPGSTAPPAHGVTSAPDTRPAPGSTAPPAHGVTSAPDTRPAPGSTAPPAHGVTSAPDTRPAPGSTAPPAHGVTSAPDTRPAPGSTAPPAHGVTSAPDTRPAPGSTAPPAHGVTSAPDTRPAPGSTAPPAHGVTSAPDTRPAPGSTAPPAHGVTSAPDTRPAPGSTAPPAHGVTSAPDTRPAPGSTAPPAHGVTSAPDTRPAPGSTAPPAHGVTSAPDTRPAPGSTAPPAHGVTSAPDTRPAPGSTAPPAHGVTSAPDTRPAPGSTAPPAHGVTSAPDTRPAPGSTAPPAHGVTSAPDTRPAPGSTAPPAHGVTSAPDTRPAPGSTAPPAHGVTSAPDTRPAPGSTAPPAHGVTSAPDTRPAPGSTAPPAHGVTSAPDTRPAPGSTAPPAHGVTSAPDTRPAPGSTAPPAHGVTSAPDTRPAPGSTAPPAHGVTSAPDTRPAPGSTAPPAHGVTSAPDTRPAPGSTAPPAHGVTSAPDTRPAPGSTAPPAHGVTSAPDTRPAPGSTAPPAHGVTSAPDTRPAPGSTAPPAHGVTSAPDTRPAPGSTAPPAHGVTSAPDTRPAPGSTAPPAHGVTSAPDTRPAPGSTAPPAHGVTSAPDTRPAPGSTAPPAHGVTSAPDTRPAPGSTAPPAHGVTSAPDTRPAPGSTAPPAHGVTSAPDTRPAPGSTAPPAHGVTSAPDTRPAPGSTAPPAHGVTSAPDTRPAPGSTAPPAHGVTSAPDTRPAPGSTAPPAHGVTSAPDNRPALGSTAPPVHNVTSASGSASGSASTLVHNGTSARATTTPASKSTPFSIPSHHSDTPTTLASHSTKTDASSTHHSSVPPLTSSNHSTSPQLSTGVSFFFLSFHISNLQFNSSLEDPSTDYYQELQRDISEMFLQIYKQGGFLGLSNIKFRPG
Sequence,Kd (CA 15-3 (MUC1)),Kd [1]
GCAGTTGATCCTTTGGATACCCTGG [CA 15-3 aptamer],0.135 nM,–
TTCCCGTCTTCCAGACAAGAGTGCAGGG [VEGF aptamer],–,400 nM
